This experiment has as its target T1, N-terminal cytosolic domain of Sec62 (Sec62 domain; residues 18-145) (S. cerevisiae, UniProt P21825 18-145).
T1 sequence (looked up): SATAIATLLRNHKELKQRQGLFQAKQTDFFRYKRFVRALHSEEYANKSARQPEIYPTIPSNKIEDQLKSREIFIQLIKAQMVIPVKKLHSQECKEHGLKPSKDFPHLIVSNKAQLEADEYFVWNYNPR
As to the kind of experiment: pull-down.

No end group written: not given here.

B1: Sec63-C1 peptide (residues 621-647 of Sec63), biotin-labeled (peptide, UniProt P14906 621-647, looked up)
peptide: VYSEEDDEYSTDDDETESDDESDASDY
modifications: also: biotin label, position not given here
For the molecule B1, the binding result is given as “binds”.

The values are drawn from paper PMC7849165 (The EMBO Journal, 2020).
